Numbering of substitutions follows the chain as printed. Names may count otherwise.
T1: GST-Pex3ΔN (aa 41–455, cytosolic domain) (P. pastoris, UniProt Q92262 41-455)
T1 sequence (looked up): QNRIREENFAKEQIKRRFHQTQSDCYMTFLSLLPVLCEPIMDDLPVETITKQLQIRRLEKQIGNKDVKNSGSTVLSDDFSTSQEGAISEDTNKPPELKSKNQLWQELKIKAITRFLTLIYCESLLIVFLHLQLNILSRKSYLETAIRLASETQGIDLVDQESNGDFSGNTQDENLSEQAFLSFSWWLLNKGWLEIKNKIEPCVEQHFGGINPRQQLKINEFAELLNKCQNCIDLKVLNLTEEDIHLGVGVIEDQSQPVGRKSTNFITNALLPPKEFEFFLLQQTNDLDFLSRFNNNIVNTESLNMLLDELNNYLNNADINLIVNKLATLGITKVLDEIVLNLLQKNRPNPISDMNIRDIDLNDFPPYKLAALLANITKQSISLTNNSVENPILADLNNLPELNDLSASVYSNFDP

B1: His-Atg37ΔC (WT) (domain or fragment, P. pastoris, UniProt C4R8D7 1-278, looked up)
chain: MSESIDRVFVKAIGTIRTLSSRTGYGGLPRPPIENRVKLYGLYKQATEGDVAGVMERPLGDSPEAEAAKRKWDAWRSEQGTSKTEAKRQYISYLIDTMKQFASDTTEARELLSELEYLWNQISDVSPNDSSDSESNAGPAQLLQNHAQLLSRDISVVDDPITSSGMDPMYNPSFQRHNSSRFINASTAERLNSLSNYYSNLNPTPPLSSRRYQGSVTPRNVDFIKWQNDINNSINKLNHDLQLLANRRLQSSASDPLYSKRGSDLTHDDFVNDISSSS
B2: His-Atg37ΔC acbs mutant (Y40F K44A) (domain or fragment, P. pastoris, UniProt C4R8D7 1-278, looked up)
chain: B1 chain with Y40F, K44A

Molecular target: T1, GST-Pex3ΔN (aa 41–455, cytosolic domain)
Assay: pull-down

Row | binding result | Binder
1 | binds | B1
2 | binds | B2

— paper PMC3926955 (The Journal of Cell Biology, 2014)
